Reference: paper PMC10746170

Tested on: T1, His6-GacA (Acinetobacter baumannii (strain ATCC 17978?)), ORF:4711fff2
T1 sequence: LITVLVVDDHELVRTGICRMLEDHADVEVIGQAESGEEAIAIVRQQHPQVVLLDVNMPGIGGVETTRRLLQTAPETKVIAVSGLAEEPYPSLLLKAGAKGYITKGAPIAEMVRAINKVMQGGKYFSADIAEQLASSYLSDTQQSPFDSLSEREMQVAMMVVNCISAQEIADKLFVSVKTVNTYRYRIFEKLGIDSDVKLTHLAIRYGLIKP
Experiment: EMSA
Settings: 20 mM Tris pH 8.0, 150 mM NaCl, 10 mM EDTA, 100 ug/mL BSA, 20 mM acetyl phosphate, 10% glycerin, 1 mM DTT; ~10 nM probe; 20 min, room temperature; 6% native …

Sequence: CTCGTCATTATTAAGGCACGAGCTTGAATTAAACTGCACATCTAGTGTCAGTTGCTTATAGTGGCTATTGTCTTAGTATTTTTAAAAATCTGCAATATCTTTTTTTTAAAATTACCTAAGAAAATAAAAATATTTCAGAAAACTTTTTAGTTTTAAAAAATTTATAGTTTCTAATTATAAATAGCTTGCACAAAAAAACCAGCTTTAAAGCTGGTCTATTTTTAAATTATCACGGCGTATGAAGCTGTGTTTCCGTGTACGGACCTATTTCCGTTTCCTGTATTCCTCCGCTTCCGGAAT (double strand) [dotI promoter probe]
- binding: binds

Sequence: TTCTATAAATAAGAAATAAAGAATTTATTAATGCGTATAGTGCACAGCAAATATTATAAATTAATAAAGGTTGGTTAAAGGTTTGTTTTACAAGTATATGAAATGAATTAAAATTTTTTAATTTTATTTTTACGGTGTAAGCTTGTGATAAATAAAAATTAATAGCTAGAAAACTTATTTAAAACTTTTTAGTCTAATAGCATATTAAATTAAATTGAGCTTTATTATTTATAGCGAAATATATAACACTCGCTGAAACTTGGTTGATTTTTAATAATCAAGATAATAAAGGAAAAGGAT (double strand) [PDC promoter probe]
- binding: binds
